Data published in patent US20220348679A1 (MYTHIC THERAPEUTICS, published 2022).
Numbering of substitutions follows the chain as printed.

T1: LRRC15 on U-87 MG (LRRC15+) cells (UniProt Q8TF66 22-581, limits assumed)
T1 construct: whole, on cells; also called cell surface LRRC15
T1 sequence (looked up): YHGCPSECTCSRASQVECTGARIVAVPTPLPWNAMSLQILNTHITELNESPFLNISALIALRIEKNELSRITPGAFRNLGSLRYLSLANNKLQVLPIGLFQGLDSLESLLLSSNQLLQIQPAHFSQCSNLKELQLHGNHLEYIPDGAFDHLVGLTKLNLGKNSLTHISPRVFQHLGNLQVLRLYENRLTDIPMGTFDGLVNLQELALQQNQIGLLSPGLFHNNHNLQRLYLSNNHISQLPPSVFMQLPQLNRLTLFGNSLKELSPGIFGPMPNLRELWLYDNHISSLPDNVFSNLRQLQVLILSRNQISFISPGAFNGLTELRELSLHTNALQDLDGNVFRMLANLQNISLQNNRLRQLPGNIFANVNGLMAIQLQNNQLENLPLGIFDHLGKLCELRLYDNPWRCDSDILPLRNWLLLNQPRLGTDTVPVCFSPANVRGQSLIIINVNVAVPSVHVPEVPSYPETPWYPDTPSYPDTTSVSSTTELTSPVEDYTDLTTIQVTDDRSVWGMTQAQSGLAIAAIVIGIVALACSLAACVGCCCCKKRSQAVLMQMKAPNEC

B1: samrotamab (antibody, V domains shown)
VH: EVQLVQSGAEVKKPGASVKVSCKASGYKFSSYWIEWVKQAPGQGLEWIGEILPGSDTTNYNEKFKDRATFTSDTSINTAYMELSRLRSDDTAVYYCARDRGNYRAWFGYWGQGTLVTVSS
VL: DIQMTQSPSSLSASVGDRVTITCRASQDISNYLNWYQQKPGGAVKFLIYYTSRLHSGVPSRFSGSGSGTDYTLTISSLQPEDFATYFCQQGEALPWTFGGGTKVEIK
notes: IgG; also called MYT0963
B2: MYT0971 (antibody, V domains shown)
VH: B1 VH with W33H
VL: B1 VL
notes: IgG

Molecular target: T1, LRRC15 on U-87 MG (LRRC15+) cells
Assay: flow cytometry on U-87 MG (LRRC15+) cells; the text of Example 22 calls the fitted value a dissociation constant KD
Method: Binding affinity of selected LRRC15 pH engineered antibody variants from Example 9 were measured on U-87 MG (LRRC15+) cells. 100,000 U-87 MG cells (ATCC HTB-14) were seeded per well in a 96 well deep well plate. Samrotamab and a pH engineered antibody variant were serially diluted at a 1:3 dilution in ice cold FC buffer (phosphate buffered saline (PBS), pH 7.4+2 mM ethylenediaminetetraacetic acid (EDTA)+2% (v/v) HI FBS). The plates were spun at 2,000 RPM for 2 minutes, the supernatant was removed, and 100 μL of diluted antibody was added to each well with final concentration ranging from 60 nM to 1 pM and incubated for 2 hours at 4° C. Post incubation, the cells were spun at 2000 rpm for 2 min and supernatant was discarded. Cells were washed twice with 500 μL of ice-cold FC buffer and resuspended with 100 μL of FC buffer. The cells were then transferred from the deep well plate to 96 well round bottom plate, spun at 2000 rpm for 2 min and incubated with 100 μL of 10 μg/mL Alexa Fluor 488 conjugated goat anti-human IgG secondary antibody (ThermoFisher Scientific, A11013) for 30 min. Post incubation, cells were washed with FC buffer and resuspended in 100 μL of FC buffer to read on a BD Accuri C6 flow cytometer. Binding affinity was measured as a dissociation constant KD by GraphPad Prism assuming Michaelis-Menten binding kinetics.

| Binder | IC50 [nM] |
| --- | --- |
| B1 | 0.228 |
| B2 | 0.484 |
